The target in assay [1] is T1, intact high molecular weight kininogen (HMWK) (Homo sapiens, UniProt P01042 19-644).
T1 construct: also called intact HMWK; 1-chain HMWK
T1 sequence: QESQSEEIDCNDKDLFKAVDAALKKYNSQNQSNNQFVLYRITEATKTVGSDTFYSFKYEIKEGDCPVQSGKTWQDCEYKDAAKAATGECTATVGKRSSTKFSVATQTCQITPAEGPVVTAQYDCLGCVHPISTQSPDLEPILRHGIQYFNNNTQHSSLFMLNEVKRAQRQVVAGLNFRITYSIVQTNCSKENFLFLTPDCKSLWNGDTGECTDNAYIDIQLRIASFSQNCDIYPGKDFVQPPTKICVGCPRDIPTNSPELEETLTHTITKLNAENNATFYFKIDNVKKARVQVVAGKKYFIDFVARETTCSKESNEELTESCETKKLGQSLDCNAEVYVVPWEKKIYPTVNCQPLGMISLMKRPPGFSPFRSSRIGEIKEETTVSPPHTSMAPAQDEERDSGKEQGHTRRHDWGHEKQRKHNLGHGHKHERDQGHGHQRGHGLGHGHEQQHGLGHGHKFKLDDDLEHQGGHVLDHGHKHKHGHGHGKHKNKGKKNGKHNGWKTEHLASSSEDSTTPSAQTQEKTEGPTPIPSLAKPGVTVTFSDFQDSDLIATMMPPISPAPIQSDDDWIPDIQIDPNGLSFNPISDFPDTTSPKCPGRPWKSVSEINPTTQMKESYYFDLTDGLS
Description: Fab passively immobilized on 384-well plate, biotinylated antigen, streptavidin-HRP. The text has this: A: plots the ratio of the result of a 2-chain HWMK binding assay to a LMWK binding assay on the y-axis compared to the ratio of the result of a 2-chain HMWK binding assay to a 1-chain HMWK binding assay on the x-axis for each antibody (Fab) tested. Recombinant Fab fragments were passively immobilized onto 384-well plates prior to addition of biotinylated 2-chain HMWK, 1-chain HMWK, or LMWK, followed by streptavidin-HRP.
The depleted library was then contacted with biotinylated 2-chain HMWK immobilized on streptavidin coated magnetic beads. The beads were extensively washed with PBS buffer and used to infect E. coli for phage output amplification to complete a round of selection. Three rounds of selection were performed prior to screening individual phage colonies by ELISA with biotinylated 1-chain and 2-chain HMWK immobilized on streptavidin coated plates followed by detection with horse radish peroxidase (HRP) conjugated anti-M13 antibody and absorbance detection due to substrate hydrolysis for 3,3′,5,5′-Tetramethylbenzidine (TMB). […] The specificity of each purified Fab was determined by coating 384 well plates and measuring binding to biotinylated 1-chain HMWK, to biotinylated 2-chain HMWK, or to biotinylated LMWK, followed by detection with streptavidin conjugated to HRP and TMB detection.

Assay [2] concerns the target T1, intact high molecular weight kininogen …. Description: ELISA: Fab coated on 96-well plate, LowCross block, biotinylated antigen, streptavidin-HRP; signal over uncoated well. How it is done:
Thirty-six purified Fab clones (see Table 2 below) were assessed for binding to cleaved HWMK, intact HMWK, and LWMK using the immunoassay described in Example 1. Specifically, each of the purified Fab clones was immobilized on 96-well assay plates at a concentration of […]) in a total volume of 100 μL in PBS and incubated overnight at 2-8° C. The assay plates were blocked using LowCross blocking buffer. Biotinylated intact HMWK, biotinylated cleaved HMWK or biotinylated LMWK ([…]) was added to each well in a total volume of 100 μL and incubated for 2 hours prior to washing with a wash buffer. HRP-labeled streptavidin was added to each well at a concentration of 100 ng/mL, and the signal was developed using Ultra TMB Substrate. The signal to noise ratio was calculated using the signal observed upon the addition of the biotinylated protein to an uncoated well. (FIG. 2, panels A and B). Based on the ELISA results, the antibodies can be divided among 5 categories (Table 2).

Changes are numbered by the printed parent chain.

B1: 559B-M0070-H10 (Fab, V domains shown)
VH: EVQLLESGGGLVQPGGSLRLSCAASGFTFSTYGMRWVRQAPGKGLEWVSVISPSGGKTNYADSVKGRFTISRDNSKNTLYLQMNSLRAEDTAVYYCARGRPDYYAMDVWGQGTTVTVSS
VL: QSALTQPPSASGAPGQRVTISCSGSSSNIGSNTVNWYQKLPGTAPKLLIYYNDRRPSGVPDRFSGSKSGNTASLTISGLQAEDEADYYCAAWDDSLSGPVFGGGTKLTVL
notes: also called M070-H10
Consider B1, for which the binding result in assay [1] is reported as “binds”.

B2: 559B-M0064-H02 (Fab, V domains shown)
VH: EVQLLESGGGLVQPGGSLRLSCAASGFTFSQYIMGWVRQAPGKGLEWVSSIGSSGVTVYADSVKGRFTISRDNSKNTLYLQMNSLRAEDTAVYYCARGGGVTVLHAFDIWGQGTMVTVSS
VL: QSALTQPASVSGSPGQSITISCTGTSSDVGGYNYVSWYQQHPGKVPKLIIYEGNKRPSGVPDRFSGSKAGNTASLTVSGLQAEDEADYYCTAYGGHSRFYVFGTGTKVTVLG
notes: Purified recombinant Fab; …GQPKANP)
B2: the binding result in assay [1] is “binds”.

B3: 559B-M0069-C09 (Fab, V domains shown)
VH: EVQLLESGGGLVQPGGSLRLSCAASGFTFSMYDMHWVRQAPGKGLEWVSSISSSGGYTQYADSVKGRFTISRDNSKNTLYLQMNSLRAEDTAMYYCARDRGLIAAAGGFDPWGQGTLVTVSS
VL: DIQMTQSPSSLSASVGDRVTITCRASQSIGIYLNWYQQKPGTAPKLLIYAASSLQSGVPSRFTGSGSGTDFTLTISSLQPDDFATYYCQRTYGRPLTFGGGTKVEIK
With B3, the binding result in assay [2] is given as “binds”.

B4: 559B-M0043-C06 (Fab, V domains shown)
VH: EVQLLESGGGLVQPGGSLRLSCAASGFTFSAYAMRWVRQAPGKGLEWVSYISSSGGETMYADSVKGRFTISRDNSKNTLYLQMNSLRAEDTAVYYCANGYGRIDYWGQGTLVTVSS
VL: QSVLTQPASVSGSPGQSITISCTGTSSDIGGYNYVSWYQQHPGKAPKLMIYEVSNRPSGVSNRFSGSKSGNTASLTISGLQAEDEADYYCSSYTSGSTRVFGTGTRVTVL
Turning to B4, in assay [2], the binding result is given as “binds”.

B5: 559B-M0004-E08 (Fab, V domains shown)
VH: EVQLLESGGGLVQPGGSLRLSCAASGFTFSMYHMNWVRQAPGKGLEWVSSIYSSGGSTRYADSVKGRFTISRDNSKNTLYLQMNSLRAEDTAVYYCARGVRYGMDVWGQGTTVTVSS
VL: DIQMTQSPSSVSASVGDRVTITCRASQGISSWLAWYQQKPGKAPKLLIYAASSLQSGVPSRFSGSGSGTDFTLTISSLQPEDFATYYCQQANSFPITFGQGTRLEIK
Consider B5, for which the binding result in assay [2] is “binds”.

B6: 559B-M0065-B10 (Fab, V domains shown)
VH: EVQLLESGGGLVQPGGSLRLSCAASGFTFSKYFMTWVRQAPGKGLEWVSWISSSGGYTNYADSVKGRFTISRDNSKNTLYLQMNSLRAEDTAVYYCARGAYYYDAFDIWGQGTMVTVSS
VL: DIQMTQSPSSLSASVGDRVTITCRASQSIAIFLNWYQQTPGKPPKLLIYGASTLQSGVPSRFSGSGSGADFTLTISNLQLEDFTTYYCQQSYSTLYTFGQGTKLEIK
Regarding B6, the binding result in assay [2] is “binds”.

B7: 559B-M0039-G07 (Fab, V domains shown)
VH: EVQLLESGGGLVQPGGSLRLSCAASGFTFSRYRMRWVRQAPGKGLEWVSGISPSGGWTYYADSVKGRFTISRDNSKNTLYLQMNSLRAEDTAVYYCTTDNGDYALAHWGQGTLVTVSS
VL: DIQMTQSPSSLSASVGDRVTITCRASQRIINYLNWYQQKPGKAPKLLIYAASSLQSGVPSRFSGSGSGTDFTLTISSLQPEDFATYYCQQSYSAPLTFGGGTRVEIK
Take B7: the binding result in assay [2] is reported as “binds”.

B8: 559B-M0003-A08 (Fab, V domains shown)
VH: EVQLLESGGGLVQPGGSLRLSCAASGFTFSAYVMRWVRQAPGKGLEWVSSIGSSGGPTYYADSVKGRFTISRDNSKNTLYLQMNSLRAEDTAVYYCARRGGSGSSHAFDIWGQGTMVTVSS
VL: B7 VL with R28S, I30S, N31S, F83S, A84G, S91Y, Y92N, A94F, R103K
B8: the binding result in assay [2] was “binds”.

B9: 559B-M0035-F05 (Fab, V domains shown)
VH: EVQLLESGGGLVQPGGSLRLSCAASGFTFSHYPMAWVRQAPGKGLEWVSGIVSSGGRTVYADSVKGRFTISRDNSKNTLYLQMNSLRAEDTAVYYCARDPYDFWSEGAFDIWGQGTMVTVSS
VL: QSVLTQPPSASGTPGQRVTISCSGSSSNIGNNFVYWYHQVPGTAPKLLIYKNNQRPSGVPDRFSGSKSAASASLAISGLRSEDEADYYCAAWDNSLSGFYVFGAGTKVTVL
On to B9, for which the binding result in assay [2] is reported as “binds”.

B10: 559B-M0067-G11 (Fab, V domains shown)
VH: EVQLLESGGGLVQPGGSLRLSCAASGFTFSPYEMVWVRQAPGKGLEWVSSIVPSGGWTVYADSVKGRFTISRDNSKNTLYLQMNSLRAEDTAVYYCASPSGRGLAFDIWGQGTMVTVSS
VL: DIQMTQSPGTLSLSPGERATLSCRASQSISSSYLAWYQQKPGQAPRLLIYGASSRATGVPDRFSGSGSGTEFTLTISSLQPEDFATYYCLQQKSYPYTFGQGTKVEIK
Take B10: the binding result in assay [2] was “binds”.

B11: 559B-M0054-B11 (Fab, V domains shown)
VH: EVQLLESGGGLVQPGGSLRLSCAASGFTFSYYGMNWVRQAPGKGLEWVSVISPSGGLTVYADSVKGRFTISRDNSKNTLYLQMNSLRAEDTAMYYCATGFAVQHGGGAFDIWGQGTMVTVSS
VL: DIQMTQSPATLSMSPGERATLSCRASQSVTTYLAWYQQKPGQAPRLLIYDASIRATGVPARFSGSGSGTDFTLTISRLEPEDFAVYYCQQRTIWPLTFGGGTKVEIK
Turning to B11, the binding result in assay [2] is reported as “binds”.

B12: 559B-M0035-H09 (Fab, V domains shown)
VH: EVQLLESGGGLVQPGGSLRLSCAASGFTFSWYGMHWVRQAPGKGLEWVSRIGPSGGPTSYADSVKGRFTISRDNSKNTLYLQMNSLRAEDTAVYYCARGYYGTGRYFQHWGQGTLVTVSS
VL: DIQMTQSPDSLSLSPGDRATLSCRASQSVGSDYLAWYQQKPGQAPRLLIYDASNRATGIPARFSGSGSGTDFTLTISSLEPEDFAVYYCQQRSNWPPTFGGGTKVEIK
Turning to B12, in assay [2], the binding result is “binds”.

B13: 559B-M0068-D01 (Fab, V domains shown)
VH: EVQLLESGGGLVQPGGSLRLSCAASGFTFSIYPMSWVRQAPGKGLEWVSGISPSGGKTAYADSVKGRFTISRDNSKNTLYLQMNSLRAEDTAVYYCARGQGRAVRGKLYYYGMDVWGQGTTVTVSS
VL: QSALTQPPSASQTPGQTVTISCSGSSSNIGTNNVNWYQQLPGTAPKLLISSHHRRPSGVPDRFSASKSGTSASLAISGLQSEDEADYYCAAWDDSLNGPVFGGGTKLTVL
As to B13, the binding result in assay [2] is “binds”.

(Values after US20210270842A1 (DYAX, published 2021).)
